The values below come from patent US20200109390A1 (Chugai, published 2020).

This experiment has as its target T1, human blood coagulation factor IX (human, UniProt P00740 47-461, Gla (gamma-carboxyglutamate) residues in the GLA domain of native FIX); the twelve Glu of the GLA domain are at positions 53, 54, 61, 63, 66, 67, 72, 73, 76, 79, 82 and 86 of SEQ ID NO: 1 (positions …).
T1 construct: The FIX co-administered with the antibodies was Christmassin M I.V; antibody A was raised against human FIXa; also called FIX; human FIX
Put plainly: not described (statement in Example 4). As for the experimental part: PK tests using mice were performed by the following method. Through the tail vein or under the dorsal skin of mice (C57BL/6J mouse, Charles River Japan), FIX (Christmassin M I.V.) was administered at a dose of 0.6 mg/kg by itself or simultaneously with 8 mg/kg of an anti-FIX antibody A or anti-FIX antibody B, in a single dose. Blood was collected five minutes, two hours, four hours, seven hours, one day, two days, seven days, 14 days, 21 days, and 28 days after the administration. The collected blood was immediately subjected to separation by centrifugation at 4° C. and 15,000 rpm for 15 minutes to obtain the plasma. The separated plasma was stored in a freezer set to −20° C. or lower until performing the measurements.
The concentration of FIX in mouse plasma was determined by ELISA. […] After stopping the reaction by adding a reaction-stopping solution (AssayPro), the 450-nm absorbance of the reaction solution in each well was measured using a microplate reader. The concentrations of FIX in mouse plasma were calculated from the absorbances of the calibration curve using SOFTmax PRO analysis software (Molecular Devices).

T1 sequence (P00740 47-461): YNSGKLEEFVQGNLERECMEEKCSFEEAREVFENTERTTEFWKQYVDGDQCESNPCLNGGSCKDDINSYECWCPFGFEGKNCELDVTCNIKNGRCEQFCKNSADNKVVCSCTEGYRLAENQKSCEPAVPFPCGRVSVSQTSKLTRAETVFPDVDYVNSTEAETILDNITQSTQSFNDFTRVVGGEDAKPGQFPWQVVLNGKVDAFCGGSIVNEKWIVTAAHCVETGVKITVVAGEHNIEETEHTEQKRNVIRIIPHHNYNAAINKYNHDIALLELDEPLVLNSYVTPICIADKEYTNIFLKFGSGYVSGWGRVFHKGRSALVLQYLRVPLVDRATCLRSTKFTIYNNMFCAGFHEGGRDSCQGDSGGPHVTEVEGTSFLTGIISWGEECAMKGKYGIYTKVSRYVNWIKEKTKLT

B1: anti-FIX antibody A (antibody, human IgG1, kappa, V domains shown)
VH: QVQLQQSGAELAKPGASVKLSCKASGYTFTSSWMHWIKQRPGQGLEWLGYINPSSGYTKYNRKFRDKATLTADKSSSTAYMQLTSLTYEDSAVYYCARGGNGYYFDYWGQGTTLTVSS
VL: DIVMTQSHKFMSTSVGDRVSITCKASQDVGTAVAWYQQKPGQSPKLLIYWASTRHTGVPDRFTGSRYGTDFTLTISNVQSEDLADYLCQQYSNYITFGGGTKLELKR
notes: Obtained by immunizing an animal with human FIXa
Turning to B1, the binding result was “binds”.

B2: anti-FIX antibody B (antibody, human IgG1, kappa, V domains shown)
VH: QVQLVQSGSELKKPGASVKVSCKASGYTFTNYGMNWVRQAPGQGLKWMGWINTRNGKSTYVDDFKGRFVFSLDSSVSTAYLQISSLKADDTAVYYCTREGNMDGYFPFTYWGQGTLVTVSS
VL: QIVLTQSPSSLSASVGDRVTITCRASSSVNYMHWYQQKPGKAPKPWIYATSNLASGVPSRFSGSGSGTDYTFTISSLQPEDIATYYCQQWSINPRTFGQGTKVEIKR
notes: expressed transiently in FS293 cells
As to B2, the binding result is reported as “binds”.
